Assay results as given in the nanobody polyreactivity screen of Harvey et al. (2022).

Assay: yeast display, Sf9 membrane polyspecificity reagent, FACS + sequencing; frameworks hold sequencing errors
How it was run: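 In a synthetic yeast display library (Saccharomyces cerevisiae BJ5465), nanobody expression was induced with galactose for 36–48 hours. FACS gates were set low and high (top ~1%) using anti-HA fluorescence for expression and streptavidin fluorescence for binding of the Sf9 membrane reagent. Each polyreactivity label is drawn from the gate of origin.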

Row | Sequence | polyreactivity (PSR sort gate)
1 | QVQLVESGGALVQAGGSLRLSCAASGGIFSYYAMGWYRQAPGKERELVAAMSWSGTSTYYADSVKGRFTISRDNAKNTVYLQMNSLNQEDTAVYYCNKVTYSRAQYIGGDGYFWGEGTQVTVSS | high polyreactivity
2 | QVQLVESGGALVQAGGSLRLSCAASGIIFNLYAKGWYRPAPGKEMELVAAITSSGTSTYYADSVKGRFTISRDNAKNTVYLQMNSLSPEDTAVYYCAAERGFYYFVEYDYWGQGTQVTVSS | high polyreactivity
3 | QVQLVESGGALVQAGGSLRLSCAASGIILLRYAMGWYRQAPGKERELVAAISYSGGSTYYADSVKGRFTISRDNAKNTVYLQMNSLKPEDTAVYYCNTVGPRRYSYDYWGQGTQVTVSS | high polyreactivity
4 | QVQLVESGGALVQAGGSLRLSCAASGIILYYYAMGWYRQAPGKERELVAAISSGGNTYYADSVKGRFTISRDNAKNTVYLQMNSLKPEDTAVYYCAAVTVIGGEYDYWGQGTQVTVSS | low polyreactivity
5 | QVQLVESGGALVQAGGSLRLSCAASGITFYDNAMGWYRQAPGKERELVAGISYSGGRTYYADSVKGRFTISRDNAKNTVYLQMNSLIPEDTAVDYCNARFGKYRSRQGYYYWGQGTQVTVSS | high polyreactivity
6 | QVQLVESGGALVQAGGSLRLSCAASGITFYFYAMGWYIHAPGKEWELVAAIRSSGDSTYYADSVKGRFTISRDNAKNTVYLQMNSRKPEDTAVYYCAAYSHHQFSRSEYYYWGQGTQVTVSS | low polyreactivity
7 | QVQLVESGGALVQAGGSLRLSCAASGLIFTAYAMGWYRQAPGKERELVAAIDWRGGSTSYADSVKGRFTISRDTAKNTVYLQMNSLKPEDTAVYYCAADYYSKYVRFGYWGQGTQVTVSS | high polyreactivity
8 | QVQLVESGGALVQAGGSLRLSCAASGRIFGGYAMGWYRQAPGTERELVAAISSGGRTYYADSVKGRFTISRDNAKNTVYLQMNSLKPEDTAVYYCNAYTRGFRLGYWGQGTQVTVSS | high polyreactivity
9 | QVQLVESGGALVQAGGSLRLSCAASGRIFYKYVMGWYRQAPGKERELVATITSGGSTYYADSVKWRFTISRDNAKNTVYLQMNSLKPEDTAVYYCAARKYYSRAYDYWGQGTQVTVSS | high polyreactivity
10 | QVQLVESGGALVQAGGSLRLSCAASGRTFNYNAMGWYRQAPGKERELVAAITSGASTNYADSVKGRFTISRDNAKNTVYLQMNSLKPEDTAVYYCNAEGYVYYLQEDYWGQGTQVNVSS | low polyreactivity
11 | QVQLVESGGALVQAGGSLRLSCAASGRTFNYYAKGWSRQAPGKERELVAAITNGVSTKYADSVKGRFTISRDNAKNTVYLQMNSLKPEDTAVYYCAAQRLYGYRLYNYWGQGTQVTVSS | high polyreactivity
12 | QVQLVESGGALVQAGGSLRLSCAASGRTFYSYAMGWYRQAPGKERELVAAINRGASTYYADSVKGRFTISRDNAKNTDYFQMKSLKPEDTAFYYCGARLYGRHYGYWGQGTQVTVSS | high polyreactivity
13 | QVQLVESGGALVQAGGSLRLSCAASGSIFKKYAMGWYRPAPGKERELVAAITRGTYYADSVKGRFTISRVNAKNTVYLQMNSLKPEDTAVYYCNREYWGRGYYRVRGEYDYWGQGTQFTVSS | low polyreactivity
14 | QVQLVESGGALVQAGGSLRLSCAASGSIFPANPMGWYRQAPGKEWEFVAAINWSTGTTYYADSVKGRFTISRDNGKNTVYLQMNSLKPEDTAVYYFNASDQAKYDYWGQGTQVTVSS | low polyreactivity
15 | QVQLVESGGALVQAGGSLRLSCAASGSIFRWTAMGWYRQAPGKERVLVAAISKSGASTYYADSVKGRFTISRDNAKNTVYLQMNSLKPEDTAVYYCNRVYLGYFRYDYWGQGTQVTVSS | high polyreactivity
16 | QVQLVESGGALVQAGGSLRLSCAASGSIFSEYAMGWYRQAPGKERELVAAISRSGGTTYYADSVKGRFTISRDNAKNTVYLQMNSLKPEDTAVYYCAARYFRGSYPMGYWGQGTQVTVSS | high polyreactivity
17 | QVQLVESGGALVQAGGSLRLSCAASGSIFSSYAMGWYRQAPGKERELVAAISGSGDSTYYADSVKGRFTISRDNAKNTVYLQMNSLKPEDTAVYYCNAVYAFNGYDYWGQGTQVTVSS | low polyreactivity
18 | QVQLVESGGALVQAGGSLRLSCAASGSTFSYNAMGWYSQAPGKERELVAAISSRGSSTYYADSVKGRFTISRDNAKNTVYFQINSLKPEDTAVYDCAARSYWGGLRYDYWGQGTQVTVSS | high polyreactivity
19 | QVQLVESGGALVQAGGSLRLSCAASGSTVKYYAMGWYRQAPGKERELVATSSSGGSTNYADSVKRRFTISRDNAKNTVYLQRNSLKPEDTAVYYCAAYSTWRRIQFWGYNYWGQGTQVTVSS | high polyreactivity
20 | QVQLVESGGALVQAGGSLRLSSAASVSIFTINAMGWYRQAPGKERELVAAISWSGAHTYYADSVKGRFTISRDNAKNTVYVQMNSLKPEDTAVYYCATGYNYLDRNTGYVHRFDYWGQGTQVTVSS | low polyreactivity
21 | QVQLVESGGALVQARGSLRLSCAASGRIFGGNAMGWYRHAPGKERDLVADISYGGGSTNYADSVKGRFTISRDNAKNTVYLQMNSLKPADTAVYYCARDAWNTDGAYIGGDYDYWGQGTKVTVSS | low polyreactivity
22 | QVQLVESGGALVQARGSLRLSCAASGRTFQIYAKGWDRQGHGKEMELVARITGVGSTNYADSVKGRFTISRDNAKNTVYLQMNSLKPEDTAVYYCAAYWILNNYEMYYWGQGTQVTVSS | low polyreactivity

Row | Sequence | polyreactivity (PSR sort gate)
23 | QVQLVESGGCIVQAGGSLRLSCAASGITFLSNPMGWYSQAPGKERELVAAIDCRGDSTYYADSVKGRFTISRDNAKNTVYLQMNSLKPEDTAVYYCNADISGSGQWDGYDYWGQGTQVSVSS | low polyreactivity
24 | QVQLVESGGCIVQAGGSLRLSCADSGSIFDWYAMVWYRQAPGKERELVAAINEGGGSTYYADSVKGRFTISRDNANNTVYLQMNSLKPEDHAVYYCAAGDYYLQDNYWGQGTQVTVSS | low polyreactivity
25 | QVQLVESGGCLVKAGGSLRLSCAASGSTFSDNAIGWSRQAPGKERELVAAINYSDGSTNYADSVKGRFTISRDNAKNTVYLQINSQQPEDTAVYYCAVDIYFWSYGWWGPYDYWGQGTQVTVSS | low polyreactivity
26 | QVQLVESGGCLVPAGGSLRLSCAASGSIFSYYAMGWYRQAPGKERELVAAITVRGGSTYYADSVKGRFTISRDNAKNTVYLQMNSLKPEDTAVYYCAADWLDESFSYGPYYYWGQGTQVTVSS | low polyreactivity
27 | QVQLVESGGCLVQAGGILRLSCAASGSTFWIYAMGWYRQAPGKERELVAAITLRSGSTYYADSVKGRYTISRDNAKNTVFLQMNSLKPEDTAVYYCATDSWGVDRPNYNYWGQGTQVTVSS | low polyreactivity
28 | QVQLVESGGCLVQAGGRLRLSCAASGFIFGRYAMGWYRQAPGKERELVAAITWSGGSTYYADSVKGRFTISRDNAKNTVYLQMNSLKPQDTAVYYCAAYAYAPRDGYGWRKYRFYYWGQGTQVTVSS | high polyreactivity
29 | QVQLVESGGCLVQAGGRLRLSCAASGSTFRSYTMVWYRQAPGKERELVADINGTGGSTYYADSVKGRFTISRDNAKNTVYLHMNSLKPEDTAVYYCAADGYFRTVTSGWALRMGYWGQGTQVTVSS | high polyreactivity
30 | QVQLVESGGCLVQAGGSHRLSCAASGRTFGYNAMGWYSQAPRKERELVAVIRSGGSTYYADSVKGRYTISRDNAKNTVYFQMNSLKPEDTAVYYCAATGLYNVTSPYSYKYDYWGQGTQVTVSS | low polyreactivity
31 | QVQLVESGGCLVQAGGSLRLIWDASGSIFKRYAMGWYRQAPGKERELVAAISYSGGSTYYADSVKGRFTISRDNAKNTVYLQMNSLKPEDTAVYYCAKRSTSRGYDYWGQGTQVTLSS | high polyreactivity
32 | QVQLVESGGCLVQAGGSLRLSCAACGITFSGYDMGWYRQAPGKERELVADITISTGSTYYADSVKGRFTISRDNAKNTVYLQMNSLKPEDTAVYYCAASPFDYWYDYYGLYKEYYYWRQGTQVTVSS | low polyreactivity
33 | QVQLVESGGCLVQAGGSLRLSCAASGFIFAYNAMGWYRQAPGKERELVAAISFSGGSTYYADSVKGRFTISRDTANNTVYLQMNSLKPEDTAVYYCAAVRYYWGQGTQVTVSS | high polyreactivity
34 | QVQLVESGGCLVQAGGSLRLSCAASGFIFSYYTMGWYRQAPGKERALVAAISYSGGSTYYADSVKGRFTISRDNAKKTVYLQMNSLKPEDTAVYYCAAETYGYYVIRYDYWGQGTQVTVSS | high polyreactivity
35 | QVQLVESGGCLVQAGGSLRLSCAASGFTFDIYAMGWYRQAPGKERELVATISRSGGTTYYADSVKGRFTISRDNAKNTVYLQMNCLKPEDTAVYYCAAAAYYYRYRYRMYYWGQGTQVTVSS | high polyreactivity
36 | QVQLVESGGCLVQAGGSLRLSCAASGFTFYWYTMGWYRQAPGKERELVAAISRSGGDTDYADSVKGRFTISRDTAKNTVYLQMDSLQPEDTAVYYCNAGYFITHNYKYDYGGQGTQVTVSS | low polyreactivity
37 | QVQLVESGGCLVQAGGSLRLSCAASGFTIWPNAMGWYRQAPGKERELVAAINWSGGATYYADSVKGRFTISRDNAKNSVYLHMNSLKPEDTAVYYCAAFSYDWYGGDEYWGKGTQVTVSS | low polyreactivity
38 | QVQLVESGGCLVQAGGSLRLSCAASGIIFQGYVMGWYRQAPGKEREFVAAISRSGGTTFYADSVKGRFTISRDNAKNTVYLQMNSLKPVDTAVYSCNRARLGRPGYDYWGQGTQVTVTS | high polyreactivity
39 | QVQLVESGGCLVQAGGSLRLSCAASGLIFRLYAMGWYRQAPGKERELVAAISVSGAITYYADSVKGRFTISRDKAKNTVYLQMNSLKPEDTAVYYCNAEAVFGRDGYVYWEVDYWGQGTQVTVSS | low polyreactivity
40 | QVQLVESGGCLVQAGGSLRLSCAASGLTFAENAMGWYREAPGKERELVAAISASGGSTYYADSVKGRFTSSRDNAKNTVYLQMNSLKPEDTAVYYCATRVAFLWPRRDYDYWGQGTQVNVSS | low polyreactivity
41 | QVQLVESGGCLVQAGGSLRLSCAASGRIFGSYAMGWYRHPPGKERELVAAISGSGGRTYYADSVKGRFTISRDNAKNTVYLQMNSLKPEDTAVYYCAADSQSFGYGYWGQGTQVTVSS | high polyreactivity
42 | QVQLVESGGCLVQAGGSLRLSCAASGRIFGYYARGWYRQSAGKERELVAAITRNGGSTYYADSVKGRFTISRDNAKNTVYIQMISLKPVDTAVYYCYATKGGGRGYWCQGTQVTVSS | high polyreactivity
43 | QVQLVESGGCLVQAGGSLRLSCAASGRIFPGYAMGWYRQAPGKEREFVAAITASGGTTYYADSVKGRFTISRDNAKNTVYLQMNSLKPEDTAVYYCAKYRYTVAGYNYWGQGTQVTVSS | high polyreactivity
